T1: Fus2p-FLAG (full-length Fus2p, internally FLAG-epitope tagged at residue 104) (S. cerevisiae, UniProt Q05670 1-677)
T1 sequence (looked up): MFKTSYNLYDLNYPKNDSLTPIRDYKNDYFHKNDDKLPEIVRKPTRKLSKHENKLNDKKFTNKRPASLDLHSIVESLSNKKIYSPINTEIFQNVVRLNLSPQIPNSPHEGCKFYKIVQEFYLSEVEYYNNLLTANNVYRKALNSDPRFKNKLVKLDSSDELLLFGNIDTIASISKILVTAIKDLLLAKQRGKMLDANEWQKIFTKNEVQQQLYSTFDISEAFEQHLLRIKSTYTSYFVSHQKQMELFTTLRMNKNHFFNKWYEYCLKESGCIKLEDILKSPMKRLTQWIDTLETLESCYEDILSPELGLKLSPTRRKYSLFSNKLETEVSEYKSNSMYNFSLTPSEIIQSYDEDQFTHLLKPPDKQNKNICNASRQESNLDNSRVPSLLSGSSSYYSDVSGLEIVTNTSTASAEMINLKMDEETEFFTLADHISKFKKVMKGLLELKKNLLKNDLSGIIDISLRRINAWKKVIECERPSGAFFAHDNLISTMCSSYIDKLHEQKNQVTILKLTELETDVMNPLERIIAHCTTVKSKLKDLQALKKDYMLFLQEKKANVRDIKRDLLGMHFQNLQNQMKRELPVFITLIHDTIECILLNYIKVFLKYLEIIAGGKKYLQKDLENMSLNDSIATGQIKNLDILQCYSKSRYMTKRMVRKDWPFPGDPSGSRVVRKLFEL


Target: T1, Fus2p-FLAG (full-length Fus2p, …)
Test: co-IP

| % binding relative to wild-type Cdc42p (so in the source) [%] | fold level bound compared with Cdc42p-T17N or wild type [fold] | Binder |
| --- | --- | --- |
| 4 |  | GST-Cdc42p (Q61L, D122A) (natural protein) not shown |
|  | ~20 | GST-Cdc42p-Q61L (GTP-locked mutant) (natural protein) not shown |
| 7 |  | GST-Cdc42p (V36M, Q61L) (natural protein) not shown |

Reference: paper PMC3315798 (Molecular Biology of the Cell, 2012)
